Data published in patent publication US20170319722A1.

Experiments:
[1] = molecular target: His-tagged CD8α human recombinant protein (TP760215, Origene) (human) (UniProt P01732); assay: sandwich ELISA; biotinylated ligand on NeutrAvidin plate, His-tagged CD8α titrated, anti-His-AP detection
[2] = molecular target: CD8 on human peripheral blood mononuclear cells (PBMCs) (human) (UniProt P01732); assay: flow cytometry, human PBMCs, co-stained with CD3-APC mAb
Chain of CD8 on human peripheral blood mononuclear cells (PBMCs) (human) (P01732 22-235): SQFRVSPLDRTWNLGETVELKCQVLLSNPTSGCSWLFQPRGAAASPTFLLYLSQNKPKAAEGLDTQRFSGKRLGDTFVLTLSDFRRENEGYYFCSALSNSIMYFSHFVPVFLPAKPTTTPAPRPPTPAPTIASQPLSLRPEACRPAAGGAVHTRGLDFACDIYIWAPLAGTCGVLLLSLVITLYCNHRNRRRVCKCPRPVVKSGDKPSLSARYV

Chain of His-tagged CD8α human recombinant protein (TP760215, Origene) (human) (P01732 22-182 limits assumed): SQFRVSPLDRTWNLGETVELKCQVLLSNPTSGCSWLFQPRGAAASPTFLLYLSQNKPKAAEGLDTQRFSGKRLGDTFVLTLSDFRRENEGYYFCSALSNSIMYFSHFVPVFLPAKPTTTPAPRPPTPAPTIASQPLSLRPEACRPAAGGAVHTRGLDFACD

| EC50 [1] [nM] | % of cells detected (Q2) [2] [%] | % of cells detected (Q4) [2] [%] | Substance |
| --- | --- | --- | --- |
| 10 | – | – | biotin-PEG3-Cy(yGGvr) (peptide) |
| 20 | – | – | biotin-PEG3-Cy(slrfG) (peptide) |
| – | 11.2 | 2.1 | human CD8-FITC mAb (clone: RPA-T8) (#561947, BD Biosciences) (antibody) |
